Data as given in patent US5597705.

Experiments:
[1] = system: thyroid hormone (T3) receptor, GC2 nuclear extract (Rattus norvegicus); assay: cell_activity; conditions: G29TK one copy, T3 stimulation of CAT in GC2 cells; three copies five-fold
[2] = system: thyroid hormone (T3) receptor, GC2 nuclear extract (Rattus norvegicus); assay: pulldown; conditions: equilibrium binding constant by ABCD assay; buffer A, poly(dI-dC), 22 C
[3] = system: glucocorticoid receptor alpha (hGR, pRShGR-alpha) (Homo sapiens); assay: cell_activity; conditions: CAT activity with DEX in CV-1 cells; wild-type reference

G186-158 (rat GH -186 to -158)
activity [1]: 2.9 fold

G209-146 (rat GH -209 to -146)
Kd [2]: 1.4 nM

MMTV LTR (GMCAT)
activity [3]: 100%
